This note sets out measurements from publication PMC2587052 (Nature structural & molecular biology, 2008).

The test concerns the target SNARE complex reconstituted and anchored on supported phospholipid bilayers (rat | human, UniProt P32851;P60880-2;P63045).

Residue numbers refer to the chain shown, from its start. Names may count otherwise.

B1: synaptotagmin-1 C2AB fragment (residues 140-421), wild type (domain or fragment)
chain: EKLGKLQYSLDYDFQNNQLLVGIIQAAELPALDMGGTSDPYVKVFLLPDKKKKFETKVHRKTLNPVFNEQFTFKVPYSELGGKTLVMAVYDFDRFSKHDIIGEFKVPMNTVDFGHVTEEWRDLQSAEKEEQEKLGDICFSLRYVPTAGKLTVVILEAKNLKKMDVGGLSDPYVKIHLMQNGKRLKKKKTTIKKNTLNPYYNESFSFEVPFEQIQKVQVVVTVLDYDKIGKNDAIGKVFVGYNSTGAELRHWSDMLANPRRPIAQWHTLQVEEEVDAMLAVKK
B1 came in with an EC50 of 12 nM.

B2: synaptotagmin-1 C2AB fragment (residues 140-421) R398Q,R399Q mutant (domain or fragment)
chain: B1 chain with R259Q, R260Q
Regarding B2, the EC50 was 12 nM.

For orientation: EC50 means the concentration that produces a half-maximal response. Low values mean higher potency in that assay, high ones lower potency in that assay.
